Measured values reported in paper PMC10877310 (Current biology : CB, 2023).

B1: 6XHis-1024-1090 (Abl2-1024-1090, site II) (domain or fragment, murine, UniProt Q4JIM5 1024-1090, looked up)
chain: KAAPGPVPSSGKPGRPVMPPPQVPLPTSSISPAKMANGTAGTKVALRKTKQAAEKISADKISKEALL
B2: Abl2-eGFP, Q4JIM5 74-1182 (natural protein)
chain: EVLHRPFGCDAESQALNEAIRWSSKENLLGATESDPNLFVALYDFVASGDNTLSITKGEKLRVLGYNQNGEWSEVRSKNGQGWVPSNYITPVNSLEKHSWYHGPVSRSAAEYLLSSLINGSFLVRESESSPGQLSISLRYEGRVYHYRINTTTDSKVYVTAESRFSTLAELVHHHSTVADGLVTTLHYPAPKCNKPTVYGVSPIHDKWEMERTDITMKHKLGGGQYGEVYVGVWKKYSLTVAVKTFKEDTMEVEEFLKEAAVMKEIKHPNLVQLLGVCTLEPPFYIVTEYMPYGNLLDYLRECSREEVTAVVLLYMATQISSAMEYLEKKNFIHRDLAARNCLVGENHVVKVADFGLSRLMTGDTYTAHAGAKFPIKWTAPESLAYNTFSIKSDVWAFGVLLWEIATYGMSPYPGIDLSQVYDLLEKGYRMEQPEGCPPKVYELMRACWKWSPADRPSFAETHQAFETMFHDSSISEEVAEELGRTASSSSVVPYLPRLPLLPSKTRTLRKQGENKENLDGGLDAAESLASSSAPAGFIRSTQASSGSPALPRKQRDKSPSSLLEDAKETCFTRDRKGGFFSSFMKKRNAPTPPKRSSSFREMENQPHKKYELTGNFSPVASLQNADGFSVAPSQQEPNLVPAKCYGGSFAQRNLCADDDSGGGGGSGTAGGGWSGITGFFTPRLIKKTLGLRAGKPTASDDTSKPFPRSNSTSSMSSGLPEQDRMAMTLPRNCQRSKLQLERTVSTSSQPEENVDRANDMLPKKSEEGAAPARERPKAKLLPRGATALPLRAPDPAITESDSPGVGVAGVAAAPKGKERNGGTRLGVAGVPEDGEQLGWSSPAKAVAVLPTTHNHKVPVLISPTLKHTPADVQLIGTDSQGNKFKLLSEHQVTSSGDKDRPRRVKPKCAPPPPPVMRLLQHPSTCSDPEEEPTAPPAGQHTPETQEGGKKAAPGPVPSSGKPGRPVMPPPQVPLPTSSISPAKMANGTAGTKVALRKTKQAAEKISADKISKEALLECADLLSSAITEPVPNSQLVDTGHQLLDYCSGYVDSIPQTRNKFAFREAVSKLELSLQELQVSSTAAGVPGTNPVLNNLLSCVQEISDVVQR
B3: 6XHis-557-C (Abl2-557-1182, C-terminal half) (domain or fragment, murine, UniProt Q4JIM5 557-1182, looked up)
chain: GRTASSSSVVPYLPRLPLLPSKTRTLRKQGENKENLDGGLDAAESLASSSAPAGFIRSTQASSGSPALPRKQRDKSPSSLLEDAKETCFTRDRKGGFFSSFMKKRNAPTPPKRSSSFREMENQPHKKYELTGNFSPVASLQNADGFSVAPSQQEPNLVPAKCYGGSFAQRNLCADDDSGGGGGSGTAGGGWSGITGFFTPRLIKKTLGLRAGKPTASDDTSKPFPRSNSTSSMSSGLPEQDRMAMTLPRNCQRSKLQLERTVSTSSQPEENVDRANDMLPKKSEEGAAPARERPKAKLLPRGATALPLRAPDPAITESDSPGVGVAGVAAAPKGKERNGGTRLGVAGVPEDGEQLGWSSPAKAVAVLPTTHNHKVPVLISPTLKHTPADVQLIGTDSQGNKFKLLSEHQVTSSGDKDRPRRVKPKCAPPPPPVMRLLQHPSTCSDPEEEPTAPPAGQHTPETQEGGKKAAPGPVPSSGKPGRPVMPPPQVPLPTSSISPAKMANGTAGTKVALRKTKQAAEKISADKISKEALLECADLLSSAITEPVPNSQLVDTGHQLLDYCSGYVDSIPQTRNKFAFREAVSKLELSLQELQVSSTAAGVPGTNPVLNNLLSCVQEISDVVQR
B4: 6XHis-688-924 (Abl2-688-924, site I) (domain or fragment, murine, UniProt Q4JIM5 688-924, looked up)
chain: GNFSPVASLQNADGFSVAPSQQEPNLVPAKCYGGSFAQRNLCADDDSGGGGGSGTAGGGWSGITGFFTPRLIKKTLGLRAGKPTASDDTSKPFPRSNSTSSMSSGLPEQDRMAMTLPRNCQRSKLQLERTVSTSSQPEENVDRANDMLPKKSEEGAAPARERPKAKLLPRGATALPLRAPDPAITESDSPGVGVAGVAAAPKGKERNGGTRLGVAGVPEDGEQLGWSSPAKAVAVLP
B5: Abl2Δ688-790-eGFP, Q4JIM5 74-1182 (natural protein)
chain: EVLHRPFGCDAESQALNEAIRWSSKENLLGATESDPNLFVALYDFVASGDNTLSITKGEKLRVLGYNQNGEWSEVRSKNGQGWVPSNYITPVNSLEKHSWYHGPVSRSAAEYLLSSLINGSFLVRESESSPGQLSISLRYEGRVYHYRINTTTDSKVYVTAESRFSTLAELVHHHSTVADGLVTTLHYPAPKCNKPTVYGVSPIHDKWEMERTDITMKHKLGGGQYGEVYVGVWKKYSLTVAVKTFKEDTMEVEEFLKEAAVMKEIKHPNLVQLLGVCTLEPPFYIVTEYMPYGNLLDYLRECSREEVTAVVLLYMATQISSAMEYLEKKNFIHRDLAARNCLVGENHVVKVADFGLSRLMTGDTYTAHAGAKFPIKWTAPESLAYNTFSIKSDVWAFGVLLWEIATYGMSPYPGIDLSQVYDLLEKGYRMEQPEGCPPKVYELMRACWKWSPADRPSFAETHQAFETMFHDSSISEEVAEELGRTASSSSVVPYLPRLPLLPSKTRTLRKQGENKENLDGGLDAAESLASSSAPAGFIRSTQASSGSPALPRKQRDKSPSSLLEDAKETCFTRDRKGGFFSSFMKKRNAPTPPKRSSSFREMENQPHKKYELTSGLPEQDRMAMTLPRNCQRSKLQLERTVSTSSQPEENVDRANDMLPKKSEEGAAPARERPKAKLLPRGATALPLRAPDPAITESDSPGVGVAGVAAAPKGKERNGGTRLGVAGVPEDGEQLGWSSPAKAVAVLPTTHNHKVPVLISPTLKHTPADVQLIGTDSQGNKFKLLSEHQVTSSGDKDRPRRVKPKCAPPPPPVMRLLQHPSTCSDPEEEPTAPPAGQHTPETQEGGKKAAPGPVPSSGKPGRPVMPPPQVPLPTSSISPAKMANGTAGTKVALRKTKQAAEKISADKISKEALLECADLLSSAITEPVPNSQLVDTGHQLLDYCSGYVDSIPQTRNKFAFREAVSKLELSLQELQVSSTAAGVPGTNPVLNNLLSCVQEISDVVQR

Experiments:
[1] = molecular target: porcine brain tubulin dimers (porcine, UniProt P02550 1-451; Q767L7 1-444); test: BLI
[2] = molecular target: microtubules polymerised from porcine brain tubulin (porcine), P02550; test: co-sedimentation
Sequence of microtubules polymerised from porcine brain tubulin (porcine), P02550 (P02550 whole entry, chain 1 of 2): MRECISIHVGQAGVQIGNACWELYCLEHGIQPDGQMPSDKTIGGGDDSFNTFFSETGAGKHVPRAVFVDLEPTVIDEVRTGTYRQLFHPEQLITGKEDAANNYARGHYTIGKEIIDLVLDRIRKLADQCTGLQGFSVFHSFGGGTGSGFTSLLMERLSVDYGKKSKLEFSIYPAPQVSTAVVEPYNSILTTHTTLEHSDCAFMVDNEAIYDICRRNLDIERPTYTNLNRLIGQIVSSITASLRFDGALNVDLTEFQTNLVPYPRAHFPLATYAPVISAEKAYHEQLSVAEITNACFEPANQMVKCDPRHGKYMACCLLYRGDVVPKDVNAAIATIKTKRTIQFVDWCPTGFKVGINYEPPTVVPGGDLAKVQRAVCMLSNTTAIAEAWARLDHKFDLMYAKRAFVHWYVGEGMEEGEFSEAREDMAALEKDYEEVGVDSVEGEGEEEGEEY
Sequence of microtubules polymerised from porcine brain tubulin (porcine), P02550 (P02554 whole entry, chain 2 of 2, further chain): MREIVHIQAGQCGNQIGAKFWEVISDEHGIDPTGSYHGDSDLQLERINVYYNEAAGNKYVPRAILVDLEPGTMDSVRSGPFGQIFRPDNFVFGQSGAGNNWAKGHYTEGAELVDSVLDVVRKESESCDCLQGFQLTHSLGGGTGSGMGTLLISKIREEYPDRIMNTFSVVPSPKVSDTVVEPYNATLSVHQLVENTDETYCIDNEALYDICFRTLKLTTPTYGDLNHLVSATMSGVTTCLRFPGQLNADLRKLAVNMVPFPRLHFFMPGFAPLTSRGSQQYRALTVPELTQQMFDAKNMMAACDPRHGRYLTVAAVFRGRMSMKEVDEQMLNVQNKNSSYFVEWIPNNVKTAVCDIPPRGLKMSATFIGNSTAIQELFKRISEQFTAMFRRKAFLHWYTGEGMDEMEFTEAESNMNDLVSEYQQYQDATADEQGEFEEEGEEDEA

Binder	Kd [1] [nM]	Kd [2] [nM]
B1	252 ± 123	–
B2	–	320
B3	17 ± 8	–
B4	118 ± 39	–
B5	–	400
